For assay [1], the target named is GP88 cell surface receptors on CCL64 mink lung epithelial cells (mink). Nature of the assay: Scatchard analysis, 125I-rGP88 on CCL64 cells; low affinity class of sites.
The target is the same in assay [2]. Nature of the assay: Scatchard analysis, 125I-rGP88 on CCL64 cells; high affinity class of sites.
Assay [3] shares this target. Nature of the assay: Scatchard analysis, 125I-rGP88 displaced by cold rGP88 on CCL64 cells in suspension; low affinity class of sites.
The target is the same in assay [4]. In words: Scatchard analysis, 125I-rGP88 displaced by cold rGP88 on CCL64 cells in suspension; high affinity class of sites.

For orientation: Kd means the constant that tells how readily two partners part at equilibrium. High values mean weaker binding, low ones tighter binding.

B1: recombinant GP88 (rGP88), mouse GP88 expressed in baculovirus infected Sf9 insect cells (ligand)
chain: TQCPDGQFCPVACCLDQGGANYSCCNPLLDTWPRITSHHLDGSCQTHGHCPAGYSCLLTVSGTSSCCPFSKGVSCGDGYHCCPQGFHCSADGKSCFQMSDNPLGAVQCPGSQFECPDSATCCIMVDGSWGCCPMPQASCCEDRVHCCPHGASCDLVHTRCVSPTGTHTLLKKFPAQKTNSAVSLPFSVVCPDAKTQCPDDSTCCELPTGKYGCCPMPNAICCSDHLHCCPQDTVCDLIQSKCLSKNYTTDLLTKLPGYPVKEVKCDMEVSCPEGYTCCRLNTGAWGCCPFAKAVCCDDHIHCCPAGFQCHTEKGTCEMGILQVGWMKKVIAPLRLPDPQILKSDTPCDDFTRCPTNNTCCKLNSGDWGCCPIPEAVCCSDNQHCCPQGFTCLAQGYCQKGDTMVAGLEKIPARQTTPLQIGDIGCDQHTSCPVGQTCCPSLKGSWACCQLPHAVCCEDRQHCCPAGYTCNVKARTCEKDVDFIQPPVLLTLGPKVGNVECGEGHFCHDNQTCCKDSAGVWACCPYLKGVCCRDGRHCCPGGFHCSARGTKCLRKKIPRWDMFLRDPVPRPLL
modifications: the labelled form is 125I-iodinated by the chloramine T method (residues not stated)
As for B1, the sites/cell was found to be 17000 sites/cell in assay [1] and 560 sites/cell in assay [2]. Besides, the dissociation constant Kd is 3.9 nM in assay [3] and 0.043 nM in assay [4].

These data come from patent publication US6670183.
